{
  "source": "patent US20130122591",
  "test_in_all_cases": "cell_activity",
  "key": {"[1]": {"system": "TALEN 101276 (engineered)"}, "ZFN 29250 (engineered)": {"system": "ZFN 29250 (engineered)"}, "ZFN 29251 (engineered)": {"system": "ZFN 29251 (engineered)"}, "ZFN 30179 (engineered)": {"system": "ZFN 30179 (engineered)"}, "[2]": {"system": "TALEN 101288 (engineered)"}, "[3]": {"system": "TALEN 101282 (engineered)", "conditions": "pair with 101288, K562, 1600 ng, day 3"}, "[4]": {"system": "TALEN 101278 (engineered)"}, "[5]": {"system": "TALEN 101272 (engineered)", "conditions": "pair with 101271, K562, 1600 ng, day 3"}, "[6]": {"system": "TALEN 101284 (engineered)"}, "ZFN 29216 (engineered)": {"system": "ZFN 29216 (engineered)"}, "ZFN 29223 (engineered)": {"system": "ZFN 29223 (engineered)"}, "[7]": {"system": "TALEN 101267 (engineered)", "conditions": "pair with 101270, K562, 1600 ng, day 3"}, "[8]": {"system": "TALEN 101270 (engineered)", "conditions": "pair with 101267, K562, 1600 ng, day 3"}, "[9]": {"system": "TALEN 101286 (engineered)", "conditions": "pair with 101284, K562, 1600 ng, day 3"}, "[10]": {"system": "TALEN 101271 (engineered)", "conditions": "pair with 101272, K562, 1600 ng, day 3"}},
  "data": [
    {"substance": "AACTTTTGTTAAATTCCTGATTTTATTTCTGTAGGACTGAGCGGCTTGCTCGAGATGTG (double strand) [canine HPRT region (29250/101276 site)]", "values": [
      {"measurement": "activity", "setting": "[1]; pair with 101278, canine D17, 200 ng, 0 at 100 and 400 ng", "result": 2.5, "unit": "% NHEJ"},
      {"measurement": "activity", "setting": "ZFN 29250 (engineered); pair with 30179, canine D17, 100 ng", "result": 9.2, "unit": "% NHEJ"}
    ]},
    {"substance": "TGATGAAGGAGATGGGAGGCCATCACAT (double strand) [29251/30179 site]", "values": [
      {"measurement": "activity", "setting": "ZFN 29251 (engineered); pair with 29250, K562, 800 ng, day 3", "result": 69.2, "unit": "% NHEJ"},
      {"measurement": "activity", "setting": "ZFN 29251 (engineered); pair with 29250, rhesus LLC-MK2 (sites stated conserved)", "result": 8.2, "unit": "% NHEJ"},
      {"measurement": "activity", "setting": "ZFN 30179 (engineered); pair with 29250, rhesus LLC-MK2", "result": 0, "unit": "% NHEJ"}
    ]},
    {"substance": "TGGATCTATCACTATTT (double strand) [101288 site]", "values": [
      {"measurement": "activity", "setting": "[2]; pair with 101284, K562, 1600 ng, day 3", "result": 62.2, "unit": "% NHEJ"},
      {"measurement": "activity", "setting": "[2]; pair with 101284, rhesus LLC-MK2", "result": 8.7, "unit": "% NHEJ"}
    ]},
    {"substance": "TTTGCTGACCTGCTGGAT (double strand) [101282 site]", "values": [
      {"measurement": "activity", "setting": "[3]", "result": 46.2, "unit": "% NHEJ"}
    ]},
    {"substance": "TGTAGGACTGAACGTCTT (double strand) [101276 site]", "values": [
      {"measurement": "activity", "setting": "[1]; pair with 101278, K562, 1600 ng, day 3", "result": 35.3, "unit": "% NHEJ"},
      {"measurement": "activity", "setting": "[1]; pair with 101278, rhesus LLC-MK2", "result": 7.6, "unit": "% NHEJ"}
    ]},
    {"substance": "TGGCCTCCCATCTCCT (double strand) [101278 site]", "values": [
      {"measurement": "activity", "setting": "[4]; pair with 101276, K562, 1600 ng, day 3", "result": 35.3, "unit": "% NHEJ"},
      {"measurement": "activity", "setting": "[4]; pair with 101276, rhesus LLC-MK2", "result": 7.6, "unit": "% NHEJ"}
    ]},
    {"substance": "TGGGCCTGAACCGGCC (double strand) [101272 site]", "values": [
      {"measurement": "activity", "setting": "[5]", "result": 19.1, "unit": "% NHEJ"}
    ]},
    {"substance": "TTGCTGACCTGCTGGATT (double strand) [101284 site]", "values": [
      {"measurement": "activity", "setting": "[6]; pair with 101288, K562, 1600 ng, day 3", "result": 62.2, "unit": "% NHEJ"},
      {"measurement": "activity", "setting": "[6]; pair with 101288, rhesus LLC-MK2", "result": 8.7, "unit": "% NHEJ"}
    ]},
    {"substance": "canine HPRT locus, other sites", "values": [
      {"measurement": "activity", "setting": "[4]; pair with 101276, canine D17, 200 ng, 0 at 100 and 400 ng", "result": 2.5, "unit": "% NHEJ"},
      {"measurement": "activity", "setting": "[6]; pair with 101288, canine D17, 100 ng", "result": 25.1, "unit": "% NHEJ"},
      {"measurement": "activity", "setting": "[2]; pair with 101284, canine D17, 100 ng", "result": 25.1, "unit": "% NHEJ"},
      {"measurement": "activity", "setting": "ZFN 29216 (engineered); pair with 29223, canine D17", "result": 0, "unit": "% NHEJ"},
      {"measurement": "activity", "setting": "ZFN 29223 (engineered); pair with 29216, canine D17", "result": 0, "unit": "% NHEJ"},
      {"measurement": "activity", "setting": "ZFN 29251 (engineered); pair with 29250, canine D17, 200 ng, 0 at 100 and 400 ng", "result": 2.8, "unit": "% NHEJ"},
      {"measurement": "activity", "setting": "ZFN 30179 (engineered); pair with 29250, canine D17, 100 ng", "result": 9.2, "unit": "% NHEJ"}
    ]},
    {"substance": "TCCGTTATGGCGAC (double strand) [101267 site]", "values": [
      {"measurement": "activity", "setting": "[7]", "result": 31.8, "unit": "% NHEJ"}
    ]},
    {"substance": "TGCTCACCACGAC (double strand) [101270 site]", "values": [
      {"measurement": "activity", "setting": "[8]", "result": 31.8, "unit": "% NHEJ"}
    ]},
    {"substance": "AAGCACTGAATAGAAATAGTGATAGATC (double strand) [29223 site]", "values": [
      {"measurement": "activity", "setting": "ZFN 29223 (engineered); pair with 29216, rhesus LLC-MK2, printed as 29233", "result": 2.7, "unit": "% NHEJ"}
    ]},
    {"substance": "ATCTCGAGCAAGACGTTCAGTCCTACAG (double strand) [29250 site]", "values": [
      {"measurement": "activity", "setting": "ZFN 29250 (engineered); pair with 29251, K562, 800 ng, day 3", "result": 69.2, "unit": "% NHEJ"},
      {"measurement": "activity", "setting": "ZFN 29250 (engineered); pair with 29251, rhesus LLC-MK2 (sites stated conserved)", "result": 8.2, "unit": "% NHEJ"}
    ]},
    {"substance": "TCTATCACTATTTCTAT (double strand) [101286 site]", "values": [
      {"measurement": "activity", "setting": "[9]", "result": 35.3, "unit": "% NHEJ"}
    ]},
    {"substance": "TGGCGTCGTGGTGAGC (double strand) [101271 site]", "values": [
      {"measurement": "activity", "setting": "[10]", "result": 19.1, "unit": "% NHEJ"}
    ]},
    {"substance": "ATGTAATCCAGCAGGTCAGCAAAGAATT (double strand) [29216 site]", "values": [
      {"measurement": "activity", "setting": "ZFN 29216 (engineered); pair with 29223 (printed 29233), rhesus LLC-MK2", "result": 2.7, "unit": "% NHEJ"}
    ]}
  ]
}
